# B1: Full PRF (WT SARS-CoV-2 -1PRF RNA) (structured_RNA)
# RNA: UCGUUUUUAAACGGGUUUGCGGUGUAAGUGCAGCCCGUCUUACACCGUGCGGCACAGGCACUAGUACUGAUGUCGUAUACAGGGCUUUUGACAUCUACAAUGAUAAAGUAGCUG
# Columns and labels:
# [1] = target: IMP3 (IGF2BP3) (UniProt O00425 1-579); experiment: MST; 5 mM Mg2+; conditions: protein: recombinant; tags: His-SUMO; label: 3' pCp-Cy5; pseudoknot (SL1, SL2, SL3)
# [2] = target: ZAP-S (short isoform of zinc-finger antiviral protein) (human, UniProt Q7Z2W4-2 1-699); experiment: MST; 5 mM Mg2+; conditions: protein: recombinant; tags: N-terminal 6xHis-SUMO; label: 3' pCp-Cy5; pseudoknot (SL1, SL2, SL3)
# Sequence of ZAP-S (short isoform of zinc-finger antiviral protein) (Q7Z2W4 other isoform, or with tags, fused parts or gaps): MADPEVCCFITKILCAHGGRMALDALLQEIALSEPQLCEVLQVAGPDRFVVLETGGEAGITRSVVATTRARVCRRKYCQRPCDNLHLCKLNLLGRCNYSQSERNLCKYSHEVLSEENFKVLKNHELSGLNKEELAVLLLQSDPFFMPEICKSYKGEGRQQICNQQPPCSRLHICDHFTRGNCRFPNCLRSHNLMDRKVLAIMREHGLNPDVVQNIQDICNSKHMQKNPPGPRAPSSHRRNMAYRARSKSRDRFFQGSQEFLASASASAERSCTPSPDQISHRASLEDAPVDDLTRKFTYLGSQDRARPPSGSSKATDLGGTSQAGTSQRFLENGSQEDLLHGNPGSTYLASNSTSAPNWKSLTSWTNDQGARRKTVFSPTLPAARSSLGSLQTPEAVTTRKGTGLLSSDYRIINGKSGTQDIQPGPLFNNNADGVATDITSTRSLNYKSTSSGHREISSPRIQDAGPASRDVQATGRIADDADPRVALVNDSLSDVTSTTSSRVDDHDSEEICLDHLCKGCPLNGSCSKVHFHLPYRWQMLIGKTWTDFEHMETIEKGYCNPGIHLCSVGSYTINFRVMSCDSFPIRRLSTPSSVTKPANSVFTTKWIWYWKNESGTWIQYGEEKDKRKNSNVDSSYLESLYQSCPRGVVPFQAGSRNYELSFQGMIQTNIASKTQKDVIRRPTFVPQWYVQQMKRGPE
# Sequence of IMP3 (IGF2BP3) (O00425 whole entry, canonical isoform): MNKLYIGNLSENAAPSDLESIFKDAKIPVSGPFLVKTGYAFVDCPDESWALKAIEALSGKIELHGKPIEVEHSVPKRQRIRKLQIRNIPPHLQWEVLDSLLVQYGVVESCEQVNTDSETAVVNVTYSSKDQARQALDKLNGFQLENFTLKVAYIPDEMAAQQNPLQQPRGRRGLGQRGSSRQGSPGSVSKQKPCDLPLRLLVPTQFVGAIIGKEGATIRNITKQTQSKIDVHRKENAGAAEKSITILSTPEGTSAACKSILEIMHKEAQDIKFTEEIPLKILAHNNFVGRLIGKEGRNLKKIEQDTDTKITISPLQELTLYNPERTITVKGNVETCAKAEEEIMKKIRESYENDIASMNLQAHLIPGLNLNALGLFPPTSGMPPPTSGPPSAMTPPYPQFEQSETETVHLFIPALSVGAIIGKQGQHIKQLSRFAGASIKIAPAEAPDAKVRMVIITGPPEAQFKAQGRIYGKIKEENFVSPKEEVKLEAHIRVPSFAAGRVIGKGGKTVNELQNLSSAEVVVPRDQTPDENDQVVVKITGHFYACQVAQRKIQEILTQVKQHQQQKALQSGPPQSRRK
binder,measurement,setting,value
B1,Kd,[1],806 ± 252 nM
same,Kd,[2],110 ± 9 nM

# — PMC8664833
